From patent US20230109998A1, “MALARIA TRANSMISSION-BLOCKING VACCINES” (PATH, priority 2020, published 2023)

Legend:
[1] = system: P. falciparum NF54 line; experiment: Rat immunization, ELISA of antiserum and standard membrane feeding assay (SMFA) of purified IgG; format: in vivo, Plasmodium falciparum; conditions: SD rats i.m., 20 μg antigen with composition of Example 6 as adjuvant; 250 ug/mL total IgG with complement in SMFA
Description: SD rats (Charles River Laboratories Japan) were immunized intramuscularly (i.m.) in the thigh muscles of the hind limb with 50 μL of a vaccine formulation consisting of 20 μg of an antigen, tagged Pfs230D1+ or non-tagged Pfs230D1+, and 8110 μg of the composition of Example 6 as an adjuvant (which corresponded to 10 μg of Compound A); 20 μg of tagged Pfs230D1+ alone for FIG. 2 or 20 μg of tagged Pfs230D1+ and 8110 μg of the composition of Example 6 for FIG. 5; or 8110 μg of the composition of Example 6 alone as a control. Rats received two or three injections on day 0 and 21 or day 0, 21, and 42. On day 42 or 56, rats were sacrificed, and blood was collected. After collection of the whole blood, the blood allowed to clot by leaving it undisturbed at room temperature for 4 hours. The clot was removed by centrifuging at 2,000×g for 10 minutes in a refrigerated centrifuge.
For the sera on day 42 or 56, the antibody levels against corresponding proteins were determined individually by ELISA (FIG. 2a for tagged Pfs230D1+, FIG. 5a for non-tagged Pfs230D1+).
For each group, an equal amount of serum from each rat was pooled regardless of ELISA units. […]
The standardized methodology for performing the SMFA is known in the art. […] Only midguts from mosquitoes with any eggs in their ovaries at the time of dissection were analysed (FIG. 2b for tagged Pfs230D1+, FIG. 5b for non-tagged Pfs230D1+). […]

[2] = system: anti-Pfs230 human monoclonal antibodies; experiment: Western blotting of purified Pfs230D1+ with anti-Pfs230 human monoclonal antibodies; format: binding; conditions: Western blot, 10 μg/mL antibody, 20 ng protein per lane, non-reducing conditions
Description: Samples were diluted with 4×LDS (Lithium dodecyl sulfate, Invitrogen) sample buffer, heated for 5 min at 90° C. and loaded in a final volume of 20 μL/well on SDS-PAGE gels (4-12% NuPAGE Bis-Tris, Invitrogen). Gels were run at 150-200 V for 35-50 min in 1×2-(N-morpholino) ethanesulfonic acid (MES) sodium dodecyl sulfate (SDS) running buffer and stained with SimplyBlue™ SafeStain (Invitrogen).
Following SDS-PAGE, proteins were transferred onto nitrocellulose membrane and Western blot procedure using anti-Pfs230 human monoclonal antibodies (non patent related). The human monoclonal antibodies were tested for reactivity at 10 μg/mL to 20 ng of Pfs230D1+(non-tagged or tagged) loaded per lane. A secondary goat anti-human antibody was used at 1/2000 dilution followed by development with BCIP/NBT substrate.

Molecule	induction of functional antibodies (ELISA units, transmission reducing activity in SMFA) [1]	reactivity to anti-Pfs230 monoclonal antibodies [2]	reactivity to anti-Pfs230 monoclonal antibodies ([2]; listed as Pfs230D1+ containing histidine-tag)	reactivity to anti-Pfs230 monoclonal antibodies ([2]; listed as Non-tagged Pfs230D1+)
tagged Pfs230D1+: N-terminal Pfs230 fragment (aa 552-731, N585Q) with C-terminal six histidine tag, SEQ ID NO: 2 (protein, C-terminal His6 tag; Pfs230D1+) DVGVDELDKIDLSYETTESGDTAVSEDSYDKYASQNTNKEYVCDFTDQLKPTESGPKVKKCEVKVNEPLIKVKIICPLKGSVEKLYDNIEYVPKKSPYVVLTKEETKLKEKLLSKLIYGLLISPTVNEKENNFKEGVIEFTLPPVVHKATVFYFICDNSKTEDDNKKGNRGIVEVYVEPYGHHHHHH	induced functional antibodies in rats	reacted under non-reducing conditions	reacted to two conformational dependent anti-Pfs230 monoclonal antibodies	
non-tagged Pfs230D1+: N-terminal Pfs230 fragment (aa 552-731, N585Q) without C-terminal tag, SEQ ID NO: 1 (protein, Pfs230D1+) DVGVDELDKIDLSYETTESGDTAVSEDSYDKYASQNTNKEYVCDFTDQLKPTESGPKVKKCEVKVNEPLIKVKIICPLKGSVEKLYDNIEYVPKKSPYVVLTKEETKLKEKLLSKLIYGLLISPTVNEKENNFKEGVIEFTLPPVVHKATVFYFICDNSKTEDDNKKGNRGIVEVYVEPYG	induced functional antibodies in rats	reacted under non-reducing conditions		reacted to two conformational dependent anti-Pfs230 monoclonal antibodies
